The values that follow come from paper PMC4516285 (Biochemistry, 2015).

For assay [1], the target named is FliM 1-16 (Escherichia coli) (UniProt P06974). Particulars: cited from earlier work.
Assay [2] concerns the target T1, wild type Escherichia coli CheY (E. coli, UniProt P0AE67 2-129).
T1 sequence: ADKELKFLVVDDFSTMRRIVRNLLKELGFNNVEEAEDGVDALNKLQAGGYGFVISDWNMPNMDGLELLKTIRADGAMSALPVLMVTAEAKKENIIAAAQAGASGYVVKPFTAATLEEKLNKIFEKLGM
Description: other fluorescence titration.

Consider CheY (from UniProt P0AE67), for which the dissociation constant (Kd) (usually the concentration at which binding is half-saturated) in assay [1] is 280 µM.

In assay [2], MGDSILSQAEIDALLN [FliM_(1–16) peptide (amino terminal 16 residues of E. coli FliM)] returned a dissociation constant (Kd) of 370 µM.
